Assay [1] addresses chimeric (mouse and human) 4-1BB (c4-1BB) on transfected CHO cells (chimeric (mouse and human)). As to the kind of experiment: flow cytometry on CHO-c4-1BB cells, negative control panel, detection with anti-mouse-IgG-Fc-FITC (1:100).
Assay [2] deals with mouse 4-1BB (m4-1BB) on transfected CHO cells (mouse) (UniProt P20334). Nature of the assay: flow cytometry on CHO-m4-1BB cells, negative control panel, detection with anti-mouse-IgG-Fc-FITC (1:100). On the technique in general: Flow cytometry measures light scatter and fluorescence of single cells or particles in a stream.
In assay [3] the target is monkey (Rhesus macaque) 4-1BB (r4-1BB) on transfected CHO cells (monkey (Rhesus macaque)). Nature of the assay: flow cytometry on CHO-r4-1BB (T) cells, negative control panel, detection with anti-mouse-IgG-Fc-PE (1:500).
In assay [4] the target is human 4-1BB (h4-1BB) on transiently transfected CHO cells (human) (UniProt Q07011). As to the kind of experiment: flow cytometry on CHO cells transiently transfected with human 4-1BB, detection with anti-mouse-IgG-Fc-FITC (1:100), SSC-H against FITC; negative control panel.
Assay [5] concerns the target Histidine-tagged human 4-1BB protein (h4-1BB-His) (human) (UniProt Q07011). Nature of the assay: SPR (Biacore T200), antibody on Protein A chip, h4-1BB-His injected. On the technique in general: SPR reads the build-up and loss of mass on a sensor chip optically.

Sequence of urelumab (antibody) (VH): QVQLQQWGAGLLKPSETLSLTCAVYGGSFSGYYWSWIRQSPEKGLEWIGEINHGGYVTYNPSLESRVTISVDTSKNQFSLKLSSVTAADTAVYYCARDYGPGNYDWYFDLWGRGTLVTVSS
Sequence of urelumab (antibody) (VL): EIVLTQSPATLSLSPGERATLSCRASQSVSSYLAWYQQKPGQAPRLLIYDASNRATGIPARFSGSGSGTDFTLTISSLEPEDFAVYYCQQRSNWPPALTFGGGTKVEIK

As to NC, the percent of cells in the FITC-positive gate in assay [1] was 1.07%; in assay [2], 0.983%; in assay [4], 0.598%. The substance also returned a percent of cells in the PE-positive gate in assay [3] of 0.429%.

As a reminder, the Kd is a measure of binding affinity in units of concentration. Broadly, the koff is a measure of how fast the partners let go of each other. As usually defined, the kon is a measure of how fast the partners come together. In assay [5], urelumab (antibody) came in with a Kd of 0.0443 µM, a koff of 0.00302 s⁻¹ and a kon of 68100 M⁻¹ s⁻¹.
